Laboratory results taken from publication PMC9505737.

Assays:
[1] = system: Immunoglobulin E (IgE), human myeloma (human); experiment: NECEEM (CE-LIF); conditions: 25 nM DNA and 25 nM IgE, 10 mM Tris-HCl pH 9.0, no added salt in CE-LIF/NECEEM, temperature not stated
[2] = system: Immunoglobulin E (IgE), human myeloma (human); experiment: cited; conditions: 10 mM Tris-HCl pH 9.0, no added salt in CE-LIF/NECEEM; temperature not stated; cited from earlier work

“GACTACCCGGGTATCTAATCCGACCATTTTTCGTCTCCTTTGTACGAGCAGTGTGCTCGACCTGCCGCCCGTAGG [S2]” showed a Kd ([1]; alternative from both peaks, not adopted) of 0.0346 µM, a Kd ([1]; alternative from sharp peak, not adopted) of 0.0284 µM and a Kd ([1]; from broad peak (value adopted by authors)) of 0.00155 µM.
In the case of “GACTACCCGGGTATCTAATCCGCGTATGGTCATGGATGTGCATACACCCCGCCTATCAGAACTGCTGCCGCCCGTAGG [S1]”, the Kd [1] is reported as 0.00083 µM.
For “GACTACCCGGGTATCTAATCCTGAAACATAGCATATTTACTTATGTCGCCTTGCCGGTTCTGCTGCCGCCCGTAGG [FITC-IgE-Apt (published IgE aptamer)]”, the Kd [2] is given as 0.023 µM.
